We go through two molecules from article PMC6555833, “APC/C^CDH1 synchronizes ribose-5-phosphate levels and DNA synthesis to cell cycle progression” (Nature Communications, 2019).

B1: purified recombinant TKT (natural protein, human, UniProt P29401 1-623, looked up)
chain: MESYHKPDQQKLQALKDTANRLRISSIQATTAAGSGHPTSCCSAAEIMAVLFFHTMRYKSQDPRNPHNDRFVLSKGHAAPILYAVWAEAGFLAEAELLNLRKISSDLDGHPVPKQAFTDVATGSLGQGLGAACGMAYTGKYFDKASYRVYCLLGDGELSEGSVWEAMAFASIYKLDNLVAILDINRLGQSDPAPLQHQMDIYQKRCEAFGWHAIIVDGHSVEELCKAFGQAKHQPTAIIAKTFKGRGITGVEDKESWHGKPLPKNMAEQIIQEIYSQIQSKKKILATPPQEDAPSVDIANIRMPSLPSYKVGDKIATRKAYGQALAKLGHASDRIIALDGDTKNSTFSEIFKKEHPDRFIECYIAEQNMVSIAVGCATRNRTVPFCSTFAAFFTRAFDQIRMAAISESNINLCGSHCGVSIGEDGPSQMALEDLAMFRSVPTSTVFYPSDGVATEKAVELAANTKGICFIRTSRPENAIIYNNNEDFQVGQAKVVLKSKDDQVTVIGAGVTLHEALAAAELLKKEKINIRVLDPFTIKPLDRKLILDSARATKGRILTVEDHYYEGGIGEAVSSAVVGEPGITVTHLAVNRVPRSGKPAELLKMFGIDRDAIAQAVRGLITKA
notes: wild-type transketolase (TKT), human; in vector pSJ3; also called TKT homodimer; TKT-TKT; source: E. coli BL21 (DE3)pLysS, purified (nickel column)

Data set [1] deals with the molecule itself. Briefly: native gel or EMSA; native gel electrophoresis of TKT, TKTL1-TKT and TKTL1. (Mobility shift assays separate free from complexed probe on a gel.)
The data set “SPR” concerns the molecule itself. Briefly: SPR. In general terms: SPR reads the build-up and loss of mass on a sensor chip optically.
Data set [2] concerns the molecule itself. Kind of data set: SPR; Biacore T200; TKT immobilised on a CM5 chip; constant of the TKT-TKT homodimer; the analyte series is not described.
Data set [3] concerns the target T1, purified recombinant TKT (human, UniProt P29401 1-623).
T1 chain: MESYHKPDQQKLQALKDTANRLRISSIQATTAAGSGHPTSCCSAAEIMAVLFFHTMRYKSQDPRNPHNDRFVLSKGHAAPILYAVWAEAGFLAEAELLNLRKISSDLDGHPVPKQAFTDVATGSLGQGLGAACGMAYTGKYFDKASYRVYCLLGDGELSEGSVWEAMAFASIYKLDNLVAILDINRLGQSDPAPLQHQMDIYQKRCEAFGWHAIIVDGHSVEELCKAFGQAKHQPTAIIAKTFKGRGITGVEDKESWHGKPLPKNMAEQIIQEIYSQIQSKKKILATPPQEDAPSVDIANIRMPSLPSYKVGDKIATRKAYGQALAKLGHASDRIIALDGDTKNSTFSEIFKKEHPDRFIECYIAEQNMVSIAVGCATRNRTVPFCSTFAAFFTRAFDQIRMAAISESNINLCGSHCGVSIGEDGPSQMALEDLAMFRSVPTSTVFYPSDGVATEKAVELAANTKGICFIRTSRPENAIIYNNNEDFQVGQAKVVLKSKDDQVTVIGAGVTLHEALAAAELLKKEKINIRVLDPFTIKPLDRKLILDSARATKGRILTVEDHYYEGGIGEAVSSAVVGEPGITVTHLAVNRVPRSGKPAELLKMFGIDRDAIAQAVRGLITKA
Kind of data set: SPR.

For data set [4], the target named is B1. Kind of data set: SPR; Biacore T200; TKT amine-coupled to a CM5 chip in 10 mM sodium acetate pH 5.5; TKTL1 in a series of concentrations starting at 65.9 nM; PBS buffer. The conditions noted are these: both partners purified.

By stoichiometry N is commonly meant the number of molecules, sites or subunits per partner or assembly. A word on the koff: it is the rate constant with which the complex falls apart. What is called Kd is the equilibrium constant for the complex coming apart. As for B1, in data set [1], the “stoichiometry N” value was 2. In addition, the koff in the data set “SPR” stood at 0.00777 s⁻¹. This molecule also yielded a Kd in data set [2] of 118 nM.

B2: purified recombinant TKTL1 (natural protein, human, UniProt P51854 1-596, looked up)
chain: MADAEARAEFPEEARPDRGTLQVLQDMASRLRIHSIRATCSTSSGHPTSCSSSSEIMSVLFFYIMRYKQSDPENPDNDRFVLAKRLSFVDVATGWLGQGLGVACGMAYTGKYFDRASYRVFCLMSDGESSEGSVWEAMAFASYYSLDNLVAIFDVNRLGHSGALPAEHCINIYQRRCEAFGWNTYVVDGRDVEALCQVFWQASQVKHKPTAVVAKTFKGRGTPSIEDAESWHAKPMPRERADAIIKLIESQIQTSRNLDPQPPIEDSPEVNITDVRMTSPPDYRVGDKIATRKACGLALAKLGYANNRVVVLDGDTRYSTFSEIFNKEYPERFIECFMAEQNMVSVALGCASRGRTIAFASTFAAFLTRAFDHIRIGGLAESNINIIGSHCGVSVGDDGASQMALEDIAMFRTIPKCTIFYPTDAVSTEHAVALAANAKGMCFIRTTRPETMVIYTPQERFEIGQAKVLRHCVSDKVTVIGAGITVYEALAAADELSKQDIFIRVIDLFTIKPLDVATIVSSAKATEGRIITVEDHYPQGGIGEAVCAAVSMDPDIQVHSLAVSGVPQSGKSEELLDMYGISARHIIVAVKCMLLN
notes: wild-type transketolase-like protein 1 (TKTL1), human; in vector pSJ3; also called TKTL1 monomer; source: E. coli BL21 (DE3)pLysS, purified (nickel column)
For the molecule B2, in the data set with purified recombinant TKT [3], the koff stood at 0.0044 s⁻¹. For the same molecule, the Kd with purified recombinant TKT [4] amounted to 146 nM.
